Data reported in patent publication US20160228570A1 (QUEEN MARY AND WESTFIELD COLLEGE, published 2016).

Assays:
[1] = target: T1, free radical modified BSA (bovine, UniProt P02769 25-607, modified as CII (OH, HOCl, ONOO or 2M ribose); residues not stated); assay: ELISA (data not shown)
T1 construct: Written as printed, as one entry

[2] = target: T2, native bovine serum albumin (bovine, UniProt P02769 25-607); assay: ELISA (data not shown)
T2 construct: Control antigen; also called BSA; native BSA
T2 sequence (P02769 25-607 limits assumed): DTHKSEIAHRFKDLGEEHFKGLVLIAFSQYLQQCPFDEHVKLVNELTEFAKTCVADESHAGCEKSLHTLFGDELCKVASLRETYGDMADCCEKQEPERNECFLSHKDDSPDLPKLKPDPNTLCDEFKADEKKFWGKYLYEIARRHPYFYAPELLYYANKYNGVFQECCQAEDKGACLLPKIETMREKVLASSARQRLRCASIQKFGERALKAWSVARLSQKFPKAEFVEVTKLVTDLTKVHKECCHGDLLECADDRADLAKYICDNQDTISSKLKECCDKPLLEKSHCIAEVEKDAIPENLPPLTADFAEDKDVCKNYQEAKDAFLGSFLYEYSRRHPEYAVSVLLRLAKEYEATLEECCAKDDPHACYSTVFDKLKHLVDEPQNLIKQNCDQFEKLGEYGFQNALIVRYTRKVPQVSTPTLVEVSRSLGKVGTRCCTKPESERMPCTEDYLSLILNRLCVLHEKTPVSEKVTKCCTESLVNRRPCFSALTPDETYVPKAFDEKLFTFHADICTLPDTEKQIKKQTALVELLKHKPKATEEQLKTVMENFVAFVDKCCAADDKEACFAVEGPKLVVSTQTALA

[3] = target: T3, ribose-modified CII (bovine, UniProt P02459 201-1214, glycated with 2M ribose, overnight at 37 C; residues not stated); assay: ELISA, purified scFv on coated antigen
T3 construct: also called Ribose-CII; glycated CII
T3 sequence (P02459 201-1214): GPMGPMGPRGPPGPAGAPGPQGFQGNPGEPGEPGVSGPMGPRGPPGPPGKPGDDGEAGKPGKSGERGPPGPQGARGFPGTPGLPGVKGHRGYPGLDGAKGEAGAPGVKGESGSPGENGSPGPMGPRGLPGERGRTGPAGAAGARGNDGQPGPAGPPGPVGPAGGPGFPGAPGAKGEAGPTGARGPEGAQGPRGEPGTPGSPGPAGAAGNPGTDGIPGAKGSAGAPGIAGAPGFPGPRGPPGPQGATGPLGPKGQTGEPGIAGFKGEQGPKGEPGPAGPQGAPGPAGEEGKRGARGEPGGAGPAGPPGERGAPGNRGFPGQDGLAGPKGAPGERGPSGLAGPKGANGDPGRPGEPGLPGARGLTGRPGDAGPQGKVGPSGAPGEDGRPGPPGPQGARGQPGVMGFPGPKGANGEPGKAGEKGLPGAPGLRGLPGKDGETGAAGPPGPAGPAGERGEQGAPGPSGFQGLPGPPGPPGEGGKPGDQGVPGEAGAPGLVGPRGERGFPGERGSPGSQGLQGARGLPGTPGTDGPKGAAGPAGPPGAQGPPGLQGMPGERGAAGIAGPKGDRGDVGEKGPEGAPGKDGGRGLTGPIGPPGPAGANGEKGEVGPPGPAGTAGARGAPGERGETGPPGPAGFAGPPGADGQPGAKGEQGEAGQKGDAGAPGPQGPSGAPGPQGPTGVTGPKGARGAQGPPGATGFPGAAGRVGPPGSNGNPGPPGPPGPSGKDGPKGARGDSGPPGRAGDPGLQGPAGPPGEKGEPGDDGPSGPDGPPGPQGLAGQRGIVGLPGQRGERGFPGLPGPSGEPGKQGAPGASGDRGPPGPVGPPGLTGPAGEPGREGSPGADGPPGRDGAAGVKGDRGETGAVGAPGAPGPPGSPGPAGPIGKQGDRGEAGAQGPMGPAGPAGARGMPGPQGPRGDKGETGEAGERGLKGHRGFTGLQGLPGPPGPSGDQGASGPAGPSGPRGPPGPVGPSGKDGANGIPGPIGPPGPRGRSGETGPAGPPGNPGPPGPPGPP
Procedure: (§1) Screening for positive anti-modified CII phage clones was first performed by enzyme-linked immunosorbent assay (ELISA), as previously described (Harrison J. L, 1996). Microtiter plate (Nunc, Paisley, UK) wells were coated with 10 μg/ml native or modified CII and incubated with 100 μl phage suspension for 90 minutes. In addition, native and modified BSA were used as negative control. After removal of the supernatants, the amount of bound phage was determined using peroxidase-labeled anti-M13 antibodies (GE Healthcare: Ltd, Little Chalfont, Buckinghamshire) and developed by using 100 mM 3,3′5,5′ tetramethylbenzidine (TMB) as substrate. The reaction was monitored in an ELISA reader at 450 nm with a reference wavelength of 650 nm using GENios plate reader (TECAN, Theale Court, Reading UK) and Magellan software (TECAN, Theale Court, Reading UK)
(§2) The reactive phage clones obtained from E. coli TG-1 bacteria were used to infect E. coli HB2151 non-suppressor bacterial strain to obtain soluble scFv. […] Binding of purified scFv to modified CII was first analyzed by ELISA as above except that mouse anti-myc tag antibody (Santa Cruz Biotechnology, INC, Wembley, UK) followed by anti-mouse-HRP conjugate (Sigma, Dorset, UK) were used to probe bound scFv.

[4] = target: T4, HOCl modified CII (bovine, UniProt P02459 201-1214, modified with HOCl; residues not stated); assay: ELISA, purified scFv on coated antigen
T4 construct: also called HOCl-CII; HOCl-Collagen II
T4 sequence (P02459 201-1214): as above
Procedure: as §1, §2

[5] = target: T5, peroxynitrated CII (bovine, UniProt P02459 201-1214, modified with peroxynitrite (ONOO); residues not stated); assay: ELISA, purified scFv on coated antigen
T5 construct: also called CII modified with ONOO; peroxynitrite-modified CII
T5 sequence (P02459 201-1214): as above
Procedure: as §1, §2

[6] = target: T6, native non-modified collagen type II (CII) (bovine, UniProt P02459 201-1214); assay: ELISA, purified scFv on coated antigen
T6 construct: also called native CII
T6 sequence (P02459 201-1214): as above
Procedure: as §1, §2

Measured: binding result

T1 sequence (P02769 25-607 limits assumed): as the sequence (P02769 25-607 limits assumed) above

B1: scFv 1-11E (scFv, not shown: large carriers; small tags and cut ends)
scFv: EVQLLESGGGLVQPGGSLRLSCAASGFTFSSYAMSWVRQAPGKGLEWVSSIDDSGATTYYADSVKGRFTISRDNSKNTLYLQMNSLRAEDTAVYYCAKNYSSFDYWGQGTLVTVSSGGGGSGGGGSGGGGSTDIQMTQSPSSLSASVGDRVTITCRASQSISSYLNWYQQKPGKAPKLLIYYASSLQSGVPSRFSGSGSGTDFTLTISSLQPEDFATYYCQQAANYPTTFGQGTKVEIK
notes: its first MA and last DI may come from cloning into the fusion; also called clone 1-11E; 1-2F
no binding: [1] | [2]

B2: scFv 12E (scFv, not shown: small tags and cut ends)
scFv: EVQLLESGGGLVQPGGSLRLSCAASGFTFSSYAMSWVRQAPGKGLEWVSSINDSGTTTYYADSVKGRFTISRDNSKNTLYLQMNSLRAEDTAVYYCAKNYSAFDYWGQGTLVTVSSGGGGSGGGGSGGGGSTDIQMTQSPSSLSASVGDRVTITCRASQSISSYLNWYQQKPGKAPKLLIYAASDLQSGVPSRFSGSGSGTDFTLTISSLQPEDFATYYCQQSDSAPTTFGQGTKVEIKR
notes: Purified soluble scFv; also called clone 12E
no binding: all assays above

B3: scFv 6-11D (scFv, not shown: small tags and cut ends)
scFv: EVQLLESGGGLVQPGGSLRLSCAASGFTFSSYAMSWVRQAPGKGLEWVSSIDTGGSYTDYADSVKGRFTISRDNSKNTLYLQMNSLRAEDTAVYYCAKSYTTFDYWGQGTLVTVSSGGGGSGGGGSGGGGSTDIQMTQSPSSLSASVGDRVTITCRASQSISSYLNWYQQKPGKAPKLLIYSASYLQSGVPSRFSGSGSGTDFTLTISSLQPEDFATYYCQQGSNSPTTFGQGTKVEIKR
notes: also called clone 6-11D; 4-5H
no binding: [1] | [2]
